From patent US20230250154A1

B1: Variant A2M, bait region SEQ ID NO 133, P01023 24-1474 (protein)
chain: SVSGKPQYMVLVPSLLHTETTEKGCVLLSYLNETVTVSASLESVRGNRSLFTDLEAENDVLHCVAFAVPKSSSNEEVMFLTVQVKGPTQEFKKRTTVMVKNEDSLVFVQTDKSIYKPGQTVKFRVVSMDENFHPLNELIPLVYIQDPKGNRIAQWQSFQLEGGLKQFSFPLSSEPFQGSYKVVVQKKSGGRTEHPFTVEEFVLPKFEVQVTVPKIITILEEEMNVSVCGLYTYGKPVPGHVTVSICRKYSDASDCHGEDSQAFCEKFSGQLNSHGCFYQQVKTKVFQLKRKEYEMKLHTEAQIQEEGTVVELTGRQSSEITRTITKLSFVKVDSHFRQGIPFFGQVRLVDGKGVPIPNKVIFIRGNEANYYSNATTDEHGLVQFSINTTNVMGTSLTVRVNYKDRSPCYGYQWVSEEHEEAHHTAYLVFSPSKSFVHLEPMSHELPCGHTQTVQAHYILNGGTLLGLKKLSFYYLIMAKGGIVRTGTHGLLVKQEDMKGHFSISIPVKSDIAPVARLLIYAVLPTGDVIGDSAKYDVENCLANKVDLSFSPSQSLPASHAHLRVTAAPQSVCALRAVDQSVLLMKPDAELSASSVYNLLPEKDLTGFPGPLNDQDDEDCINRHNVYINGITYTPVSSTNEKDMYSFLEDMGLKAFTNSKIRKPKMCPQLEQYEMHGPIPENFFGVEGEGEGESELEGRGSSEDLVVQIVEEPHTKLRKYFPETWIWDLVVVNSAGVAEVGVTVPDTITEWKAGAFCLSEDAGLGISSTASLRAFQPFFVELTMPYSVIRGEAFTLKATVLNYLPKCIRVSVQLEASPAFLAVPVEKEQAPHCICANGRQTVSWAVTPKSLGNVNFTVSAEALESQELCGTEVPSVPEHGRKDTVIKPLLVEPEGLEKETTFNSLLCPSGGEVSEELSLKLPPNVVEESARASVSVLGDILGSAMQNTQNLLQMPYGCGEQNMVLFAPNIYVLDYLNETQQLTPEIKSKAIGYLNTGYQRQLNYKHYDGSYSTFGERYGRNQGNTWLTAFVLKTFAQARAYIFIDEAHITQALIWLSQRQKDNGCFRSSGSLLNNAIKGGVEDEVTLSAYITIALLEIPLTVTHPVVRNALFCLESAWKTAQEGDHGSHVYTKALLAYAFALAGNQDKRKEVLKSLNEEAVKKDNSVHWERPQKPKAPVGHFYEPQAPSAEVEMTSYVLLAYLTAQPAPTSEDLTSATNIVKWITKQQNAQGGFSSTQDTVVALHALSKYGAATFTRTGKAAQVTIQSSGTFSSKFQVDNNNRLLLQQVSLPELPGEYSMKVTGEGCVYLQTSLKYNILPEKEEFPFALGVQTLPQTCDEPKAHTSFQISLSVSYTGSRSASNMAIVDVKMVSGFIPLKPTVKMLERSNHVSRTEVSSNHVLIYLDKVSNQTLSLFFTVLQDVPVRDLKPAIVKVYDYYETDEFAIAEYNAPCSKDLGNADYKDDDDKGASHHHHHH
B2: Variant A2M, bait region SEQ ID NO 134, P01023 24-1474 (protein)
chain: SVSGKPQYMVLVPSLLHTETTEKGCVLLSYLNETVTVSASLESVRGNRSLFTDLEAENDVLHCVAFAVPKSSSNEEVMFLTVQVKGPTQEFKKRTTVMVKNEDSLVFVQTDKSIYKPGQTVKFRVVSMDENFHPLNELIPLVYIQDPKGNRIAQWQSFQLEGGLKQFSFPLSSEPFQGSYKVVVQKKSGGRTEHPFTVEEFVLPKFEVQVTVPKIITILEEEMNVSVCGLYTYGKPVPGHVTVSICRKYSDASDCHGEDSQAFCEKFSGQLNSHGCFYQQVKTKVFQLKRKEYEMKLHTEAQIQEEGTVVELTGRQSSEITRTITKLSFVKVDSHFRQGIPFFGQVRLVDGKGVPIPNKVIFIRGNEANYYSNATTDEHGLVQFSINTTNVMGTSLTVRVNYKDRSPCYGYQWVSEEHEEAHHTAYLVFSPSKSFVHLEPMSHELPCGHTQTVQAHYILNGGTLLGLKKLSFYYLIMAKGGIVRTGTHGLLVKQEDMKGHFSISIPVKSDIAPVARLLIYAVLPTGDVIGDSAKYDVENCLANKVDLSFSPSQSLPASHAHLRVTAAPQSVCALRAVDQSVLLMKPDAELSASSVYNLLPEKDLTGFPGPLNDQDDEDCINRHNVYINGITYTPVSSTNEKDMYSFLEDMGLKAFTNSKIRKPKMCPQLEQYEMHGPSELEGRGSIPENFFGVKEEEGLGSSEDLVVQIVEEPHTKLRKYFPETWIWDLVVVNSAGVAEVGVTVPDTITEWKAGAFCLSEDAGLGISSTASLRAFQPFFVELTMPYSVIRGEAFTLKATVLNYLPKCIRVSVQLEASPAFLAVPVEKEQAPHCICANGRQTVSWAVTPKSLGNVNFTVSAEALESQELCGTEVPSVPEHGRKDTVIKPLLVEPEGLEKETTFNSLLCPSGGEVSEELSLKLPPNVVEESARASVSVLGDILGSAMQNTQNLLQMPYGCGEQNMVLFAPNIYVLDYLNETQQLTPEIKSKAIGYLNTGYQRQLNYKHYDGSYSTFGERYGRNQGNTWLTAFVLKTFAQARAYIFIDEAHITQALIWLSQRQKDNGCFRSSGSLLNNAIKGGVEDEVTLSAYITIALLEIPLTVTHPVVRNALFCLESAWKTAQEGDHGSHVYTKALLAYAFALAGNQDKRKEVLKSLNEEAVKKDNSVHWERPQKPKAPVGHFYEPQAPSAEVEMTSYVLLAYLTAQPAPTSEDLTSATNIVKWITKQQNAQGGFSSTQDTVVALHALSKYGAATFTRTGKAAQVTIQSSGTFSSKFQVDNNNRLLLQQVSLPELPGEYSMKVTGEGCVYLQTSLKYNILPEKEEFPFALGVQTLPQTCDEPKAHTSFQISLSVSYTGSRSASNMAIVDVKMVSGFIPLKPTVKMLERSNHVSRTEVSSNHVLIYLDKVSNQTLSLFFTVLQDVPVRDLKPAIVKVYDYYETDEFAIAEYNAPCSKDLGNADYKDDDDKGASHHHHHH
B3: Variant A2M, bait region SEQ ID NO 135, P01023 24-1474 (protein)
chain: SVSGKPQYMVLVPSLLHTETTEKGCVLLSYLNETVTVSASLESVRGNRSLFTDLEAENDVLHCVAFAVPKSSSNEEVMFLTVQVKGPTQEFKKRTTVMVKNEDSLVFVQTDKSIYKPGQTVKFRVVSMDENFHPLNELIPLVYIQDPKGNRIAQWQSFQLEGGLKQFSFPLSSEPFQGSYKVVVQKKSGGRTEHPFTVEEFVLPKFEVQVTVPKIITILEEEMNVSVCGLYTYGKPVPGHVTVSICRKYSDASDCHGEDSQAFCEKFSGQLNSHGCFYQQVKTKVFQLKRKEYEMKLHTEAQIQEEGTVVELTGRQSSEITRTITKLSFVKVDSHFRQGIPFFGQVRLVDGKGVPIPNKVIFIRGNEANYYSNATTDEHGLVQFSINTTNVMGTSLTVRVNYKDRSPCYGYQWVSEEHEEAHHTAYLVFSPSKSFVHLEPMSHELPCGHTQTVQAHYILNGGTLLGLKKLSFYYLIMAKGGIVRTGTHGLLVKQEDMKGHFSISIPVKSDIAPVARLLIYAVLPTGDVIGDSAKYDVENCLANKVDLSFSPSQSLPASHAHLRVTAAPQSVCALRAVDQSVLLMKPDAELSASSVYNLLPEKDLTGFPGPLNDQDDEDCINRHNVYINGITYTPVSSTNEKDMYSFLEDMGLKAFTNSKIRKPKMCPQLEQYEMHGPIPENFFGVSELEGRGSSEDLVVQIKEEEGLGSVEEPHTKLRKYFPETWIWDLVVVNSAGVAEVGVTVPDTITEWKAGAFCLSEDAGLGISSTASLRAFQPFFVELTMPYSVIRGEAFTLKATVLNYLPKCIRVSVQLEASPAFLAVPVEKEQAPHCICANGRQTVSWAVTPKSLGNVNFTVSAEALESQELCGTEVPSVPEHGRKDTVIKPLLVEPEGLEKETTFNSLLCPSGGEVSEELSLKLPPNVVEESARASVSVLGDILGSAMQNTQNLLQMPYGCGEQNMVLFAPNIYVLDYLNETQQLTPEIKSKAIGYLNTGYQRQLNYKHYDGSYSTFGERYGRNQGNTWLTAFVLKTFAQARAYIFIDEAHITQALIWLSQRQKDNGCFRSSGSLLNNAIKGGVEDEVTLSAYITIALLEIPLTVTHPVVRNALFCLESAWKTAQEGDHGSHVYTKALLAYAFALAGNQDKRKEVLKSLNEEAVKKDNSVHWERPQKPKAPVGHFYEPQAPSAEVEMTSYVLLAYLTAQPAPTSEDLTSATNIVKWITKQQNAQGGFSSTQDTVVALHALSKYGAATFTRTGKAAQVTIQSSGTFSSKFQVDNNNRLLLQQVSLPELPGEYSMKVTGEGCVYLQTSLKYNILPEKEEFPFALGVQTLPQTCDEPKAHTSFQISLSVSYTGSRSASNMAIVDVKMVSGFIPLKPTVKMLERSNHVSRTEVSSNHVLIYLDKVSNQTLSLFFTVLQDVPVRDLKPAIVKVYDYYETDEFAIAEYNAPCSKDLGNADYKDDDDKGASHHHHHH
B4: Variant A2M, bait region SEQ ID NO 136, P01023 24-1474 (protein)
chain: SVSGKPQYMVLVPSLLHTETTEKGCVLLSYLNETVTVSASLESVRGNRSLFTDLEAENDVLHCVAFAVPKSSSNEEVMFLTVQVKGPTQEFKKRTTVMVKNEDSLVFVQTDKSIYKPGQTVKFRVVSMDENFHPLNELIPLVYIQDPKGNRIAQWQSFQLEGGLKQFSFPLSSEPFQGSYKVVVQKKSGGRTEHPFTVEEFVLPKFEVQVTVPKIITILEEEMNVSVCGLYTYGKPVPGHVTVSICRKYSDASDCHGEDSQAFCEKFSGQLNSHGCFYQQVKTKVFQLKRKEYEMKLHTEAQIQEEGTVVELTGRQSSEITRTITKLSFVKVDSHFRQGIPFFGQVRLVDGKGVPIPNKVIFIRGNEANYYSNATTDEHGLVQFSINTTNVMGTSLTVRVNYKDRSPCYGYQWVSEEHEEAHHTAYLVFSPSKSFVHLEPMSHELPCGHTQTVQAHYILNGGTLLGLKKLSFYYLIMAKGGIVRTGTHGLLVKQEDMKGHFSISIPVKSDIAPVARLLIYAVLPTGDVIGDSAKYDVENCLANKVDLSFSPSQSLPASHAHLRVTAAPQSVCALRAVDQSVLLMKPDAELSASSVYNLLPEKDLTGFPGPLNDQDDEDCINRHNVYINGITYTPVSSTNEKDMYSFLEDMGLKAFTNSKIRKPKMCPQLEQYEMHGPKEEEGLGSIPENFFGVSELEGRGSEGEGEGEGVEEPHTKLRKYFPETWIWDLVVVNSAGVAEVGVTVPDTITEWKAGAFCLSEDAGLGISSTASLRAFQPFFVELTMPYSVIRGEAFTLKATVLNYLPKCIRVSVQLEASPAFLAVPVEKEQAPHCICANGRQTVSWAVTPKSLGNVNFTVSAEALESQELCGTEVPSVPEHGRKDTVIKPLLVEPEGLEKETTFNSLLCPSGGEVSEELSLKLPPNVVEESARASVSVLGDILGSAMQNTQNLLQMPYGCGEQNMVLFAPNIYVLDYLNETQQLTPEIKSKAIGYLNTGYQRQLNYKHYDGSYSTFGERYGRNQGNTWLTAFVLKTFAQARAYIFIDEAHITQALIWLSQRQKDNGCFRSSGSLLNNAIKGGVEDEVTLSAYITIALLEIPLTVTHPVVRNALFCLESAWKTAQEGDHGSHVYTKALLAYAFALAGNQDKRKEVLKSLNEEAVKKDNSVHWERPQKPKAPVGHFYEPQAPSAEVEMTSYVLLAYLTAQPAPTSEDLTSATNIVKWITKQQNAQGGFSSTQDTVVALHALSKYGAATFTRTGKAAQVTIQSSGTFSSKFQVDNNNRLLLQQVSLPELPGEYSMKVTGEGCVYLQTSLKYNILPEKEEFPFALGVQTLPQTCDEPKAHTSFQISLSVSYTGSRSASNMAIVDVKMVSGFIPLKPTVKMLERSNHVSRTEVSSNHVLIYLDKVSNQTLSLFFTVLQDVPVRDLKPAIVKVYDYYETDEFAIAEYNAPCSKDLGNADYKDDDDKGASHHHHHH

Molecular target: Protease Mixtures
Experiment: cell-based or functional assay

Protease Inhibition (% of WT); Protease Mixtures, IGD Substrate	Protease Inhibition (% of WT); Protease Mixtures, Collagen Substrate	Binder
75 % of WT		B1
220 % of WT		B2
140 % of WT		B3
215 % of WT	170 % of WT	B4
